± gives the uncertainty stated by the source.
Assay: self-splicing fitness, log relative to wild type (ln ratio); higher = more splicing; Tetrahymena group I intron in knt gene, E. coli kanamycin selection, DiMSum; sequences stand for … in CUCUCU…GGAGGGAAAAGUUAUCAGGCAUGCACCUGGUAGCUAGUCUUUAAACCAAUAGAUUGCAUCGGUUUAAAAGGCAAGACCGUCAAAUUGCGGGAAAGGGGUCAACAGCCGUUCAGUACCAAGUCUCAGGGGAAACUUUGAGAUGGCCUUGCAAAGGGUAUGGUAAUAAGCUGACGGACAUGGUCCUAACCACGCAGCCAAGUCCUAAGUCAACAGAUCUUCUGUUGAUAUGGAUGCAGUUCACAGACUAAAUGUCGGUCGGGGAAGAUGUAUUCUUCUCAUAAGAUAUAGUCGGACCUCUCCUUAAUGGGAGCUAGCGGAUGAAGUGAUGCAACACUGGAGCCGCUGGGAACUAAUUUGUAUGCGAAAGUAUAUUGAUUAGUUUUGGAGUACUCGUGGUCG
Summary of the method: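 Fitness was computed with DiMSum as the error-weighted combination of replicate fold changes, kanamycin versus none, each normalised to wild type. The library randomised all eight intron nucleotides of the P1ex region, with the intron placed in the knt kanamycin-resistance gene on pET-22b(+) in E. coli BL21(DE3). Six replicate transformations were grown overnight at 37°C or 30°C on LB agar with or without 25 μg/mL kanamycin, plus 100 μg/mL carbenicillin, 50 μM IPTG and 0.2% rhamnose. Pooled colonies were amplicon-sequenced on an Illumina HiSeq 2500.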

Sequence | self-splicing fitness (ln) (30 °C) | self-splicing fitness (ln) (37 °C)
GAGCAGCAAUAUUACGCAGC | -3.7 ± 0.21 | -2.61 ± 0.29
GAGCAGCAAUAUUACGCAUG | -3.03 ± 0.34 | -1.67 ± 0.31
GAGCAGCAAUAUUACGCCGU | -1.39 ± 0.12 | -0.525 ± 0.19
GAGCAGCAAUAUUACGCGGG | -2.52 ± 0.21 | -1.96 ± 0.23
GAGCAGCAAUAUUACGGAUC | -0.51 ± 0.12 | -0.724 ± 0.12
GAGCAGCAAUAUUACGGGAA | -3.18 ± 0.26 | -2.05 ± 0.22
GAGCAGCAAUAUUACGGUAC | -2.73 ± 0.14 | -0.416 ± 0.11
GAGCAGCAAUAUUACGGUCC | -2.93 ± 0.18 | -1.63 ± 0.17
GAGCAGCAAUAUUACGUAAC | -1.36 ± 0.11 | -1.13 ± 0.18
GAGCAGCAAUAUUACGUAAU | -1.59 ± 0.063 | -0.994 ± 0.1
GAGCAGCAAUAUUACGUAUU | -2.62 ± 0.066 | -1.32 ± 0.075
GAGCAGCAAUAUUACGUCCC | -0.684 ± 0.11 | -0.465 ± 0.19
GAGCAGCAAUAUUACGUCUU | -3.01 ± 0.19 | -1.23 ± 0.15
GAGCAGCAAUAUUACGUGAU | -2.21 ± 0.082 | -0.968 ± 0.084
GAGCAGCAAUAUUACGUUCC | -3.51 ± 0.17 | -3.28 ± 0.21
GAGGAGCAAUAUUACGACAC | -0.706 ± 0.35 | -0.696 ± 0.31
GAGGAGCAAUAUUACGACUA | -1.32 ± 0.43 | -1.47 ± 0.37
GAGGAGCAAUAUUACGAGGC | -3.47 ± 0.47 | –
GAGGAGCAAUAUUACGGAAU | -3.82 ± 0.37 | –
GAGGAGCAAUAUUACGGAGG | – | -2.2 ± 0.24
GAGGAGCAAUAUUACGGGAA | -2.81 ± 0.26 | -1.84 ± 0.46
GAGGAGCAAUAUUACGGGAU | -2.69 ± 0.28 | –
GAGGAGCAAUAUUACGGUCU | -3.51 ± 0.48 | -0.511 ± 0.21
GAGGAGCAAUAUUACGUAAA | -3.86 ± 0.17 | -1.32 ± 0.13
GAGGAGCAAUAUUACGUACC | -0.85 ± 0.31 | -0.663 ± 0.27
GAGGAGCAAUAUUACGUAGU | -2.29 ± 0.19 | -2.19 ± 0.3

Sequence | self-splicing fitness (ln) (30 °C) | self-splicing fitness (ln) (37 °C)
GAGGAGCAAUAUUACGUGAU | – | -2.02 ± 0.27
GAGGAGCAAUAUUACGUGUC | -3.51 ± 0.27 | -1.91 ± 0.2
GAGUAGCAAUAUUACGAAGU | -2.93 ± 0.18 | -2.1 ± 0.15
GAGUAGCAAUAUUACGACCA | -1.81 ± 0.12 | 0.176 ± 0.15
GAGUAGCAAUAUUACGAGCC | -1.67 ± 0.2 | -1.26 ± 0.19
GAGUAGCAAUAUUACGAUUC | -0.85 ± 0.18 | -0.0237 ± 0.24
GAGUAGCAAUAUUACGCAUC | -2.66 ± 0.32 | -2.17 ± 0.28
GAGUAGCAAUAUUACGCGGA | -2.61 ± 0.17 | -2.06 ± 0.17
GAGUAGCAAUAUUACGCUCG | -1.88 ± 0.28 | -0.561 ± 0.29
GAGUAGCAAUAUUACGCUGU | -3.36 ± 0.23 | -1.48 ± 0.22
GAGUAGCAAUAUUACGCUUA | -1.45 ± 0.13 | -0.422 ± 0.12
GAGUAGCAAUAUUACGGAGC | -2.75 ± 0.23 | -1.8 ± 0.27
GAGUAGCAAUAUUACGGAGU | -3.7 ± 0.27 | -3.05 ± 0.19
GAGUAGCAAUAUUACGGAUA | -2.11 ± 0.25 | -2.41 ± 0.25
GAGUAGCAAUAUUACGGCGC | -0.602 ± 0.14 | 0.407 ± 0.19
GAGUAGCAAUAUUACGGGCG | -1.89 ± 0.12 | -0.779 ± 0.12
GAGUAGCAAUAUUACGGGGC | -2.79 ± 0.28 | -1.98 ± 0.33
GAGUAGCAAUAUUACGGGUU | -2.25 ± 0.14 | -1.81 ± 0.2
GAGUAGCAAUAUUACGGUGG | -3.37 ± 0.26 | -2.15 ± 0.18
GAGUAGCAAUAUUACGUAAA | – | -0.672 ± 0.33
GAGUAGCAAUAUUACGUAAC | -2.12 ± 0.1 | -2.95 ± 0.17
GAGUAGCAAUAUUACGUCUU | -1.94 ± 0.16 | -1.49 ± 0.17
GAUAAGCAAUAUUACGAGCG | -1.25 ± 0.1 | -0.755 ± 0.11
GAUAAGCAAUAUUACGAUGC | -0.7 ± 0.11 | -0.45 ± 0.11
GAUAAGCAAUAUUACGCAAU | -2.21 ± 0.13 | -0.936 ± 0.16
GAUAAGCAAUAUUACGCAGU | -2.94 ± 0.2 | -1.65 ± 0.24

Sequence | self-splicing fitness (ln) (30 °C) | self-splicing fitness (ln) (37 °C)
GAUAAGCAAUAUUACGCCAA | -1.91 ± 0.2 | -2.16 ± 0.22
GAUAAGCAAUAUUACGCCCC | -2.27 ± 0.32 | -1.43 ± 0.33
GAUAAGCAAUAUUACGCCCG | -2.05 ± 0.2 | -0.456 ± 0.24
GAUAAGCAAUAUUACGCCGC | – | -1.99 ± 0.41
GAUAAGCAAUAUUACGCCGG | -1.66 ± 0.2 | -1.06 ± 0.14
GAUAAGCAAUAUUACGCGAC | -1.41 ± 0.14 | -1.54 ± 0.23
GAUAAGCAAUAUUACGCGUG | -0.603 ± 0.072 | -0.471 ± 0.088
GAUAAGCAAUAUUACGCUCU | -2.11 ± 0.18 | -0.116 ± 0.2
GAUAAGCAAUAUUACGGGAA | -2.84 ± 0.25 | -1.99 ± 0.22
GAUAAGCAAUAUUACGGGUA | -1.69 ± 0.14 | -1.37 ± 0.17
GAUAAGCAAUAUUACGGGUC | -3.26 ± 0.14 | -1.81 ± 0.13
GAUAAGCAAUAUUACGGUCU | -2.33 ± 0.12 | -1.46 ± 0.14
GAUAAGCAAUAUUACGGUGA | -1.61 ± 0.093 | -1.1 ± 0.12
GAUAAGCAAUAUUACGGUUA | -0.72 ± 0.12 | 0.108 ± 0.11
GAUAAGCAAUAUUACGUACC | -0.984 ± 0.2 | -0.641 ± 0.21
GAUAAGCAAUAUUACGUCCA | -1.72 ± 0.15 | -0.215 ± 0.17
GAUAAGCAAUAUUACGUGCA | -0.463 ± 0.15 | -1.06 ± 0.18
GAUAAGCAAUAUUACGUGUC | -2.29 ± 0.21 | -2.5 ± 0.31
GAUCAGCAAUAUUACGAAAA | -0.449 ± 0.2 | -0.691 ± 0.23
GAUCAGCAAUAUUACGAAUA | -0.747 ± 0.11 | -0.471 ± 0.15
GAUCAGCAAUAUUACGAAUC | -3.46 ± 0.41 | -2.61 ± 0.39
GAUCAGCAAUAUUACGACCA | -1.08 ± 0.092 | 0.352 ± 0.15
GAUCAGCAAUAUUACGAGAC | -3.07 ± 0.44 | -1.86 ± 0.13
GAUCAGCAAUAUUACGAUAA | 0.273 ± 0.069 | 0.106 ± 0.076
GAUCAGCAAUAUUACGCACU | 0.181 ± 0.092 | 0.467 ± 0.1
GAUCAGCAAUAUUACGCCAA | -1.95 ± 0.15 | -0.747 ± 0.12

— the supplement of paper PMC7877785
